# Results as given in PMC5562350.
# B1: DH270.6 (antibody, V domains shown)
# VH: QVQLVQSGAQMKNPGASVKVSCAPSGYTFTDFYIHWLRQAPGQGLQWMGWMNPQTGRTNTARNFQGRVTMTRDTSIGTAYMELRSLTSDDTAIYYCTTGGWISLYYDSSYYPNFDHWGQGTLLTVSS
# VL: QSALTQPASVSGSPGQSITISCTGTKYDVGSHDLVSWYQQYPGKVPKYMIYEVNKRPSGVSNRFSGSKSGNTASLTISGLRAEDEADYYCCSFGGSATVVCGGGTKVTVL
# Molecular target: Man9-V3 glycopeptide (HIV-1 (strain not stated))
row,Molecule,Kd
1,DH270.1 (antibody),0.331 µM
2,DH270.IA2 (antibody),> 10 µM
3,DH270.IA3 (antibody),> 10 µM
4,DH270.IA4 (antibody),> 10 µM
5,DH270.UCA (antibody),> 10 µM
6,B1,0.188 µM
